For 1 substance, increase in the population participating in FRET with mavacamten (head-head interaction within the dimer), percent of molecules in the interacting-heads motif (head-head interaction within the dimer) and fraction participating in FRET after glutaraldehyde (head-head interaction within the dimer) results are on record in paper PMC8479475.

For assay [1], the target named is Labeled bovine β-cardiac heavy meromyosin (HMM) carrying EDANS- and dabcyl-labeled regulatory light chain (bovine) (UniProt P85100). In words: FRET or BRET; time-resolved FRET as in a2 with mavacamten (dose-response) and 2 mM magnesium ATP, incubated 10 min; 5 μM labeled HMM; head-head interaction within the molecule.
For assay [2] the target is unchanged. Kind of assay: FRET or BRET; time-resolved FRET between EDANS- and dabcyl-labeled RLC (1:3) on the two heads of one HMM dimer; head-head interaction within the molecule (interacting-heads motif), not between HMM molecules; in solution, no cross-linker. In general terms: In BRET a luciferase serves as donor, and the signal depends on an acceptor being close.
For assay [3] the target is unchanged. Kind of assay: FRET or BRET + cross-linking; time-resolved FRET as in a2 after cross-linking: 5 μM HMM in 10 mM MOPS, 30 mM KCl, 2 mM MgATP, 1 mM DTT, pH 7.5, 0.1% glutaraldehyde for 1 min, quenched with 100 mM Tris pH 7.5; head-head interaction within the molecule.

Turning to “Labeled bovine β-cardiac heavy meromyosin (HMM) carrying EDANS- and dabcyl-labeled regulatory light chain (from UniProt P85100 1-199; Q3SZE5 1-166) (complex)”, in assay [1], the increase in the population participating in FRET with mavacamten (head-head interaction within the dimer) turned out to be 4%. In assay [2], this substance returned a percent of molecules in the interacting-heads motif (head-head interaction within the dimer) of 43%. For the same substance, the fraction participating in FRET after glutaraldehyde (head-head interaction within the dimer) in assay [3] was determined as 74%.
